For assay [1], the target named is IgG1 heavy chain with CH3 construct 2 (K392D, K409D) (human) [IgG part: P01857]. In words: native MS; transfection S: vectors IV+V+VI 2:1:1; AB = vector IV with vector VI.
For assay [2], the target named is IgG1 heavy chain with CH3 construct 1 (E356K, D399K) (human) [IgG part: P01857]. In words: SDS-PAGE of protein A-purified supernatant; construct expressed alone.
Assay [3] addresses IgG1 heavy chain with CH3 construct 3 (K392D, K409D, K439D) (human) [IgG part: P01857]. In words: native MS; transfection L: vectors IV+VII+VIII 1:1:1; AB = vector IV with vector VIII.
Assay [4] has the same target. Description: native MS; transfection L: vectors IV+VII+VIII 1:1:1; BC = vector IV with vector VII.
The target in assay [5] is IgG1 heavy chain with CH3 construct 2 (K392D, K409D) (human) [IgG part: P01857]. Description: native MS (peak height); transfection #11 of Table 24; CC = C (fibrinogen)/1 with C/2.
The target in assay [6] is IgG1 heavy chain with CH3 construct 1 (E356K, D399K) (human) [IgG part: P01857]. In words: native MS; transfection S: vectors IV+V+VI 2:1:1; homodimer of vector IV.
Assay [7] deals with IgG1 heavy chain with CH3 construct 3 (K392D, K409D, K439D) (human) [IgG part: P01857]. In words: native MS; transfection T: vectors IV+VII+VIII 2:1:1; AB = vector IV with vector VIII.
For assay [8] the target is unchanged. In words: native MS; transfection T: vectors IV+VII+VIII 2:1:1; BC = vector IV with vector VII.
The target in assay [9] is IgG1 heavy chain with CH3 construct 2 (K392D, K409D) (human) [IgG part: P01857].
Assay [10] deals with IgG1 heavy chain with CH3 construct 1 (E356K, D399K) (human) [IgG part: P01857]. In words: native MS; transfection B: vector IV alone (thyroglobulin VH, construct 1).
The target in assay [11] is IgG1 heavy chain with CH3 construct 3 (K392D, K409D, K439D) (human) [IgG part: P01857]. In words: native MS; transfection J: vectors IV+VII co-expressed 1:1.
Assay [12] has as its target IgG1 heavy chain with CH3 construct 2 (K392D, K409D) (human) [IgG part: P01857]. In words: native MS; transfection I: vectors IV+V co-expressed 1:1.
The target is the same in assay [13]. Description: native MS (peak height); transfection #9 of Table 24; CD = C (fibrinogen)/1 with D (RTK2)/2.
Assay [14] shares this target. Description: native MS; transfection K: vectors IV+V+VI 1:1:1; BC = vector IV with vector V (fibrinogen VH).
Assay [15] shares this target. Description: native MS; transfection S: vectors IV+V+VI 2:1:1; BC = vector IV with vector V.
The target in assay [16] is IgG1 heavy chain with CH3 construct 1 (E356K, D399K) (human) [IgG part: P01857]. Description: native MS; transfection T: vectors IV+VII+VIII 2:1:1; homodimer of vector IV.
For assay [17], the target named is IgG1 heavy chain with CH3 construct 4 (K392D, D399K, K409D) (human) [IgG part: P01857]. In words: native MS; transfection G: vector II alone (VH MF1025, construct 4).
Assay [18] has the same target. In words: native MS; transfection O: vectors I+II+III co-expressed 1:1:1.
Assay [19] has the same target. In words: native MS; transfection M: vectors I+II co-expressed 1:1.
Assay [20] has the same target. In words: native MS; transfection V: vectors I+II+III co-expressed 1:1:10.
In assay [21] the target is IgG1 heavy chain with CH3 construct 5 (E356K, E357K, K439D, K370D) (human) [IgG part: P01857]. Description: native MS; transfection N: vectors I+III co-expressed 1:1.
The target is the same in assay [22]. Description: native MS; transfection H: vector III alone (VH MF1122, construct 5).
Assay [23] has the same target. In words: native MS; transfection O: vectors I+II+III co-expressed 1:1:1.
Assay [24] shares this target. In words: native MS; transfection V: vectors I+II+III co-expressed 1:1:10.
Assay [25] has the same target. In words: native MS; transfection U: vectors I+III co-expressed 1:5.
Assay [26] concerns the target IgG1 heavy chain with CH3 construct 63 (L351D) (human) [IgG part: P01857]. In words: SDS-PAGE of protein A-purified supernatant; construct expressed alone.
Assay [27] shares this target. In words: native MS; transfection ZT (3:1): vectors XIII+XVI co-expressed.
For assay [28] the target is unchanged. In words: native MS; transfection ZV (1:3): vectors XIII+XVI co-expressed.
Assay [29] shares this target. Description: native MS; combination 2 co-expressed (A: VH MF1337, B: VH MF1122).
Assay [30] shares this target. Description: native MS; transfection ZW (1:1): vectors XIII+XVI co-expressed.
Assay [31] has the same target. Description: native MS; combination 7 co-expressed (A: VH MF1337, B: VH MF1122).
The target is the same in assay [32]. In words: native MS; transfection ZU (1:1): vectors XIII+XVI co-expressed.
Assay [33] shares this target. In words: native MS; transfection ZO (1:1): vectors XIII+XVI co-expressed.
The target in assay [34] is IgG1 heavy chain with CH3 construct 64 (T366D) (human) [IgG part: P01857]. In words: SDS-PAGE of protein A-purified supernatant; construct expressed alone.
Assay [35] has the same target. In words: native MS; combination 16 co-expressed (A: VH MF1337, B: VH MF1122).
Assay [36] has as its target IgG1 heavy chain with CH3 construct 77 (L351R) (human) [IgG part: P01857]. The description is as above.
For assay [37], the target named is IgG1 heavy chain with CH3 construct 64 (T366D) (human) [IgG part: P01857]. In words: native MS; combination 15 co-expressed (A: VH MF1337, B: VH MF1122).
In assay [38] the target is IgG1 heavy chain with CH3 construct 76 (L351K, L368K) (human) [IgG part: P01857]. The assay is described as above.
The target in assay [39] is IgG1 heavy chain with CH3 construct 64 (T366D) (human) [IgG part: P01857]. Description: native MS; transfection ZP: vectors XIV+XVII co-expressed.
Assay [40] concerns the target IgG1 heavy chain with CH3 construct 65 (S354D, Y349D) (human) [IgG part: P01857]. In words: native MS; transfection ZQ: vectors XII+XVIII co-expressed.
The target in assay [41] is IgG1 heavy chain with CH3 construct 66 (V397D) (human) [IgG part: P01857]. Description: native MS; transfection ZR: vectors XV+XIX co-expressed.
Assay [42] addresses IgG1 heavy chain with CH3 construct 67 (K360D) (human) [IgG part: P01857]. In words: native MS; transfection ZS: vectors XI+XX co-expressed.
The target of assay [43] is IgG1 heavy chain with wildtype CH3 (construct vector MV1057, wildtype IgG1 Fc) (human) [IgG part: P01857]. Description: native MS; transfection N: vectors I+III co-expressed 1:1.
Assay [44] has the same target. In words: native MS; transfection O: vectors I+II+III co-expressed 1:1:1.
Assay [45] shares this target. Description: native MS; transfection A: vector I alone (VH MF1337, wildtype CH3).
Assay [46] has the same target. In words: native MS; transfection M: vectors I+II co-expressed 1:1.
For assay [47] the target is unchanged. Description: native MS; transfection V: vectors I+II+III co-expressed 1:1:10.
Assay [48] shares this target. Description: native MS; transfection U: vectors I+III co-expressed 1:5.

Where two headings read alike, the source gives them in different places.

Results on 9 substances are retold here after patent publication US20150139996A1.

“IgG1 heavy chain with CH3 construct 1 (E356K, D399K) (from UniProt P01857-1)”: the Bispecific found (%) in [1] stood at 55%; in assay [3] it was 60%; in [4] it was 16%; in assay [7], 39%; in assay [8] it was 58%; in assay [9], 47%. The Bispecific found (%) stood at 96% in assay [11], 96% in assay [12], 38% in [14] and 42% in [15]. Besides, the % IgG in assay [2] was 64.2%. In assay [2], this substance gave a % half molecule of 35.8%. Further, the figures for the percent of species in the mixture in [5] and in assay [13] were 61% and 67%, respectively. Further, the Other molecules (%) in assay [6] and in assay [16] was 3% in each case. This substance also registered a Full IgG found (%) in [10] of 60%. Moreover, the Half molecules found (%) in assay [10] was found to be 40%.
Turning to “IgG1 heavy chain with CH3 construct 4 (K392D, D399K, K409D) (from UniProt P01857-1)”, the BB found (%) turned out to be 100% in [17], 4% in [18], 45% in assay [19] and 81% in assay [20].
Take “IgG1 heavy chain with CH3 construct 5 (E356K, E357K, K439D, K370D) (from UniProt P01857-1)”: the CC found (%) was 9% in assay [21]; 100% in [22]; 30% in assay [23]; 9% in assay [24]; 48% in assay [25].
“IgG1 heavy chain with CH3 construct 63 (L351D) (from UniProt P01857-1)” registered a % IgG in assay [26] of 89.8%. In addition, in [26], the % half molecule was 10.2%. The CC found (%) in [27] was 16%; in assay [28], 23%; in assay [30], 2.4%; in assay [32], 10%; in assay [33], 7%. Further, the % BB found in assay [29] came to 3%; in [31] it was 12%.
In the case of “IgG1 heavy chain with CH3 construct 64 (T366D) (from UniProt P01857-1)”, in assay [34], the % IgG worked out at 89.6%. This substance returned a % half molecule in assay [34] of 10.4%. Besides, the % AA found was found to be 30% in assay [35] and 3% in assay [37]. Also, the results for the % AB found in assay [36] and in assay [38] were 69% and 92%, respectively. This substance also registered a CC found (%) in assay [39] of 13%.
The substance “IgG1 heavy chain with CH3 construct 65 (S354D, Y349D) (from UniProt P01857-1)” yielded a CC found (%) in assay [40] of 33%.
“IgG1 heavy chain with CH3 construct 66 (V397D) (from UniProt P01857-1)” yielded a CC found (%) in assay [41] of 11%.
In assay [42], “IgG1 heavy chain with CH3 construct 67 (K360D) (from UniProt P01857-1)” returned a CC found (%) of 15%.
Take “IgG1 heavy chain with wildtype CH3 (construct vector MV1057, wildtype IgG1 Fc) (from UniProt P01857-1)”: the AA found (%) in assay [43] worked out at 88%; in assay [44], 66%; in assay [45] it was 100%; in [46], 51%; in assay [47] it was 8%; in assay [48], 47%.
